Source: patent publication US20170240632A1, “COMPOSITIONS AND METHODS FOR IDENTIFYING AND TREATING CACHEXIA OR PRE-CACHEXIA” (THE BROAD INSTITUTE INC., priority 2014, published 2017)
“Also recorded” adds a separate entry of the source.

System: Primary human myoblast differentiated into terminal myotubes
Assay: Cachexia induction by recombinant S100/HMGB1 proteins, myosin HC in-cell Western
Type: cell-based
Settings: recombinant ligands in Hanks Balance Salt Solution applied 1:2 v:v to fresh maintenance media each day for 3 days
Procedure: FIG. 1 is a graph showing the differential cachexia-inducing activity of r-S100 faimily proteins. All rpooteins are tested in HBSS buffer. Myosin HC is measured in an in-cell Western assay.
FIGS. 1-4 illustrate the effect of various proteins of the S100 family, as well as HMGB1, as cachexia inducers when conmpared with cachexia-inducing media. Primary human myoblast were plated and differentiated into terminal myotubes as previously described. Recombinant ligands were prepared at the same dose curve in Hanks Balance Salt Solution (buffer) and applied 1:2 v:v to fresh maintenance media each day for 3 days. Cells were assessed for myosin HC content by in-cell Western staining as previously described.

Molecule	induction of the cachectic phenotype (myosin HC content)	induction of the cachectic phenotype (myosin HC content) (listed as S100 A7)	induction of the cachectic phenotype (myosin HC content) (listed as A8)	induction of the cachectic phenotype (myosin HC content) (listed as A9)
S100B: recombinant S100 family protein, RAGE ligand (protein, listed as Homo sapiens) MSELEKAMVALIDVFHQYSGREGDKHKLKKSELKELINNELSHFLEEIKEQEVVDKVMETLDNDGDGECDFQEFMAFVAMVTTACHEFFEHE	little or no activity; also recorded: do not induce precachexia and/or cachexia	–	–	–
S100A7: recombinant S100 family protein, RAGE ligand (protein, listed as Homo sapiens) MSNTQAERSIIGMIDMFHKYTRRDDKIEKPSLLTMMKENFPNFLSACDKKGTNYLADVFEKKDKNEDKKIDFSEFLSLLGDIATDYHKQSHGAAPCSGGSQ	key effector molecules in inducing precachexia and/or cachexia	inducers of the cachectic phenotype	–	–
S100A8: recombinant S100 family protein, RAGE ligand (protein, listed as Homo sapiens) MLTELEKALNSIIDVYHKYSLIKGNFHAVYRDDLKKLLETECPQYIRKKGADVWFKELDINTDGAVNFQEFLILVIKMGVAAHKKSHEESHKE	key effector molecules in inducing precachexia and/or cachexia	–	inducers of the cachectic phenotype	–
S100A9: recombinant S100 family protein, RAGE ligand (protein, listed as Homo sapiens) MTCKMSQLERNIETIINTFHQYSVKLGHPDTLNQGEFKELVRKDLQNFLKKENKNEKVIEHIMEDLDTNADKQLSFEEFIMLMARLTWASHEKMHEGDEGPGHHHKPGLGEGTP	key effector molecules in inducing precachexia and/or cachexia	–	–	inducers of the cachectic phenotype
Calprotectin: homodimers, heterodimers and heterotetramers of S100A8 and S100A9 (protein, UniProt P05109 1-93; P06702 1-114, looked up) Protein S100-A8: MLTELEKALNSIIDVYHKYSLIKGNFHAVYRDDLKKLLETECPQYIRKKGADVWFKELDINTDGAVNFQEFLILVIKMGVAAHKKSHEESHKE Protein S100-A9: MTCKMSQLERNIETIINTFHQYSVKLGHPDTLNQGEFKELVRKDLQNFLKKENKNEKVIEHIMEDLDTNADKQLSFEEFIMLMARLTWASHEKMHEGDEGPGHHHKPGLGEGTP	key effector molecules in inducing precachexia and/or cachexia	–	–	–
HMGB1: high mobility group box 1, RAGE ligand (protein, UniProt P09429 1-215, looked up) High mobility group protein B1: MGKGDPKKPRGKMSSYAFFVQTCREEHKKKHPDASVNFSEFSKKCSERWKTMSAKEKGKFEDMAKADKARYEREMKTYIPPKGETKKKFKDPNAPKRPPSAFFLFCSEYRPKIKGEHPGLSIGDVAKKLGEMWNNTAADDKQPYEKKAAKLKEKYEKDIAAYRAKGKPDAAKKGVVKAEKSKKKKEEEEDEEDEEDEEEEEDEEDEDEEEDDDDE	do not induce precachexia and/or cachexia; also recorded: not cachexogenic in muscle	–	–	–
